Consider 1 molecule from patent publication US20090004190A1, “Rage Fusion Proteins And Methods Of Use” (priority 2006, published 2009).

One assay deals with T1, amphoterin (Ampho) (Homo sapiens, UniProt P09429).
T1 sequence (P09429 1-215): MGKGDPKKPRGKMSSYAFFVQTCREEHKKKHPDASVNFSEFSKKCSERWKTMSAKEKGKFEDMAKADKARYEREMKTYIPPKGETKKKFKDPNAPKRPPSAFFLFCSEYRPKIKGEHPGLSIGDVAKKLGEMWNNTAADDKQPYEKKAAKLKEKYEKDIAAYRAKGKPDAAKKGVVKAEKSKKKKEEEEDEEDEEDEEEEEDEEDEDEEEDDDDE
Kind of assay: In vitro ligand binding (ELISA) to immobilized amphoterin. As to conditions: ligand 5 micrograms per well; FIG. 7. How it is done:
For example, the RAGE fusion protein may be used in a binding assay to identify potential RAGE ligands. In one example embodiment of such a binding assay, a known RAGE ligand may coated onto a solid substrate (e.g., Maxisorb plates) at a concentration of about 5 micrograms per well, where each well contains a total volume of about 100 microliters (μL). The plates may be incubated at 4° C. overnight to allow the ligand to absorb. Alternatively, shorter incubation periods at higher temperature (e.g., room temperature) may be used. […] The RAGE fusion protein bound to the immobilized ligand may be detected in a variety of ways. […] The bound complex may be detected by adding the alkaline phosphatase substrate, para-nitrophenylphosphate (PNPP), and measuring conversion of PNPP to para-nitrophenol (PNP) as an increase in absorbance at 405 nm. […] In the absence of ligand (i.e., coating with only BSA) there was no increase in absorbance. […] Binding was detected by the addition of an immunodetection complex containing a monoclonal mouse anti-human IgG1 diluted 1:11,000 to a final assay concentration (FAC) of 21 ng/100 μL, a biotinylated goat anti-mouse IgG diluted 1:500, to a FAC of […], and an avidin-linked alkaline phosphatase. […]
Background: ELISA stands for enzyme-linked immunosorbent assay.

For assay [1], the system named is allogeneic rejection of transplanted islet cells. Nature of the assay: Allogeneic islet transplantation (BALB/c islets in streptozotocin-diabetic B6 mice). Type of assay: in vivo, mouse. The settings on record: for day of graft loss, each animal: blood glucose exceeded 250 mg/dl; for day of graft loss, Mean: n 8. How it is done:
C57BL/6J (6-8 week old) (B6) mice were made diabetic by a single intravenous injection of streptozotocin (STZ) (Sigma Chemical Co., St. Louis, Mo.) at 200 mg/kg. BALB/cJ (6-8 week old) (BALB) mice served as donors for islet transplantation, thus providing an allo-mismatch for islet transplants.
Mice (BALB/c) were anesthetized with ketamine HCl/xylazine HCl solution (Sigma, St. Louis Mo.). After intraductal injection of 3 ml of cold Hank's balanced salt solution (HBSS, Gibco, Grand Island N.Y.) containing 1.5 mg/ml of collagenase P (Roche Diagnostics, Branchburg, N.J.), pancreata were surgically procured and digested at 37° C. for 20 mins. Islets were washed with HBSS and purified by discontinuous gradient centrifugation using Polysucrose 400 (Cellgro, Herndon Va.) having four different densities (26%, 23%, 20%, and 11%). The tissue fragments at the interface of the 20% and 23% layers were collected, washed and resuspended in HBSS. Individual islets, free of attached acinar, vascular and ductal tissues were handpicked under an inverted microscope, yielding highly purified islets for transplantation.
Streptozotocin-induced diabetic C57BL/6 (B6) mice received islet grafts within 2 days of the diagnosis of diabetes. BALB/cJ (6-8 week old) (BALB) mice served as donors for allogeneic islet transplantation. For transplantation, 500-600 freshly isolated islets (i.e., approximately 550 islet equivalents) from donor mice were picked up with an infusion set and transplanted into the subcapular space of the right kidney of a recipient.
Test compounds were administered as soon as the islets were transplanted; administration continued for about 60 days, depending upon how the control animal was faring.
Islet graft function was monitored by serial blood glucose measurements daily for the first 2 weeks after islet transplantation, followed by every other day thereafter. Reversal of diabetes was defined as blood a glucose level of less than 200 mg/dl on two consecutive measurements. Graft loss was determined when blood glucose exceeded 250 mg/dl on two consecutive measurements.

Where [2] appears, read: 300 ug + 30 ug qod ip (Group 3).
[3] abbreviates: 300 ug LD + 100 ug qod ip (Group 1).

Where “and” joins values, the source holds several entries; their conditions need not be identical. Identical values can stand only once.

B1: TTP-4000: four domain RAGE fusion protein: human RAGE V and C1 domains with interdomain linkers (to residue 251) fused to human IgG1 CH2 and CH3; SEQ ID NO: 34/56 (protein, listed as Homo sapiens)
chain: QNITARIGEPLVLKCKGAPKKPPQRLEWKLNTGRTEAWKVLSPQGGGPWDSVARVLPNGSLFLPAVGIQDEGIFRCQAMNRNGKETKSNYRVRVYQIPGKPEIVDSASELTAGVPNKVGTCVSEGSYPAGTLSWHLDGKPLVPNEKGVSVKEQTRRHPETGLFTLQSELMVTPARGGDPRPTFSCSFSPGLPRHRALRTAPIQPRVWEPVPLEEVQLVVEPEGGAVAPPSVFLFPPKPKDTLMISRTPEVTCVVVDVSHEDPEVKFNWYVDGVEVHNAKTKPREEQYNSTYRVVSVLTVLHQDWLNGKEYKCKVSNKALPAPIEKTISKAKGQPREPQVYTLPPSRDELTKNQVSLTCLVKGFYPSDIAVEWESNGQPENNYKTTPPVLDSDGSFFLYSKLTVDKSRWQQGNVFSCSVMHEALHNHYTQKSLSLSPGK
As for B1, in the assay with amphoterin (Ampho), the “binding to immobilized amphoterin (absorbance at 405 nm)” value is recorded as “specifically interact”. Further, the “day of graft loss, each animal” value was 13 day and 14 day and 12 day (2×) and 11 day (2×) and 8 day (2×) in assay [1] (setting [2]); 14 day (2×) and 16 day (2×) and 13 day (2×) and 12 day and 15 day in assay [1] (setting [3]). Moreover, the “day of graft loss, Mean” value was 11.125 days in assay [1] (setting [2]) and 14.125 days in assay [1] (setting [3]).
